These results are taken from patent US20170369569A1 (KAO, published 2017).

Ends that are not written are not given here.

One assay deals with T1, active GIP, GIP(1-42) (human).
T1 construct: also called human active GIP
T1 peptide: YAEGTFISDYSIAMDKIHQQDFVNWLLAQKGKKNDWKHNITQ
Put plainly: sandwich ELISA, anti-total GIP capture antibody, biotinylated anti-active GIP antibody (1 µg/mL) as detection, GIP 8.2 to 2000 pg/mL. On the procedure: (§1) The reactivity of the monoclonal antibody obtained in Example 1 with active GIP was confirmed by ELISA. The amino group of the anti-active GIP monoclonal antibody was biotinylated using a NH₂ group biotinylation kit (manufactured by Dojindo Laboratories). ELISA was conducted using 1 μg/mL prepared biotinylated anti-active GIP monoclonal antibody instead of a detection antibody ‘GIP detection antibody’ (biotinylated anti-total GIP monoclonal antibody) included in Human (total) GIP ELISA kit (manufactured by Merck Millipore). Six 4-fold serial dilutions (8.2 to 2000 pg/mL) were prepared with a 2000 pg/mL solution of GIP(1-42) or GIP(3-42) as the highest concentration. The capture antibody used was an anti-total GIP monoclonal antibody (included in the Human GIP (total) ELISA kit manufactured by Merck Millipore). The detection antibody used was the biotinylated anti-active GIP monoclonal antibody. A sandwich ELISA system containing a peroxidase-streptavidin conjugate was used in detection. GIP concentrations were plotted on the X axis against absorbance of 450 nm to 590 nm on the Y axis to prepare a calibration curve (FIG. 1).
A general note: An ELISA detects its analyte on a solid surface through an enzyme-linked reagent.

Assay [1] addresses T2, GIP(1-7) synthetic peptide.
T2 peptide: H-YAEGTFI-OH
Put plainly: direct ELISA on immobilized peptide, biotinylated antibody, peroxidase-streptavidin. On the procedure:
(§2) The synthesized 6 peptides were each diluted to 1 μg/mL with PBS(−) and immobilized onto 96-well plates. ELISA was conducted using the biotinylated anti-active GIP monoclonal antibody and a peroxidase-streptavidin conjugate for detection.

Assay [2] concerns the target T3, GIP(1-6)+GIP nonspecific 4aa (random 4aa) synthetic peptide.
T3 construct: also called GIP(1-6)+random 4aa
T3 peptide: H-YAEGTFVNLV-OH
The assay is described as above. On the procedure:
as §2

For assay [3], the target named is T4, GIP(1-6) synthetic peptide.
T4 peptide: H-YAEGTF-OH
The assay is described as above. On the procedure: as §2

Assay [4] concerns the target T5, PEGylated N-terminal 15 amino acids of active GIP (GIP(1-15)), antigen (1) for measurement (human, also: PEGylated, site not given here).
T5 construct: also called PEGylated GIP(1-15)
T5 peptide: YAEGTFISDYSIAMD
Put plainly: ELISA on immobilized antigen (1 µg/mL), hybridoma culture supernatant, HRP-labeled anti-mouse Ig secondary antibody. On the procedure: (§3) The antigens (1) and (2) for measurement were each diluted to 1 μg/mL with PBS(−) and immobilized onto plates.

Assay [5] concerns the target T6, GIP(1-8) synthetic peptide.
T6 peptide: H-YAEGTFIS-OH
In words: direct ELISA on immobilized peptide (1 µg/mL), biotinylated antibody, peroxidase-streptavidin. On the procedure: as §2

Assay [6] addresses T7, GIP (1-10) synthetic peptide.
T7 construct: Free NH2 and COOH termini as printed
T7 peptide: H-YAEGTFISDY-OH
Described as above. On the procedure:
as §2

In assay [7] the target is T8, GIP (1-9) synthetic peptide.
T8 peptide: H-YAEGTFISD-OH
The description is as above. On the procedure: as §2

Assay [8] deals with T9, PEGylated N-terminal 13 amino acids of nonactive GIP (GIP(3-15)), antigen (2) for measurement (human, also: PEGylated, site not given here).
T9 construct: also called PEGylated GIP(3-15)
T9 peptide: EGTFISDYSIAMD
In words: ELISA on immobilized antigen, hybridoma culture supernatant, HRP-labeled anti-mouse Ig secondary antibody. On the procedure:
as §3

A further assay addresses T10, nonactive GIP, GIP(3-42) (human).
T10 peptide: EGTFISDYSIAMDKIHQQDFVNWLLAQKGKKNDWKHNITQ
Put plainly: sandwich ELISA, anti-total GIP capture antibody, biotinylated anti-active GIP antibody (1 µg/mL) as detection. On the procedure: as §1

B1: anti-active GIP monoclonal antibody produced from hybridoma 9B9H5-B9 line (antibody, V domains shown)
VH: QVQLQQPGAELVKPGASVKLSCKASGYTFTSFWMHWVIQRPGQGLEWIGEMNPSDGRTHFNEKFKTKATLTIDTSSNTAYMELNSLTSEDSAVYYCARRMEDWGQGTLVTVSA
VL: DIKMTQSPSSMYASLGERVTITCKASQDINSYLGWFQQKPGKSPKTLIYGANRLVDGVPSRFSGSGSGQDYSLTISSLEYDDMGIYYCLQYDEFPLTFGAGTKLELKR
notes: Mouse (BALB/c) hybridoma monoclonal antibody, purified on protein A. It was amplified with a mouse IgG H chain-specific primer; also called biotinylated anti-active GIP monoclonal antibody; anti-active GIP antibody of the present invention
As to B1, the binding result is recorded as “binds” with active GIP, GIP(1-42); “no binding (tested: peptide coated at 1 µg/mL)” in assay [1]; “no binding (tested: peptide coated at 1 µg/mL)” in assay [2]; “no binding (tested: peptide coated at 1 µg/mL)” in assay [3]; “binds” in [4]; “binds” in [5]. The binding result is on record as “binds” in assay [6]; “binds” in assay [7]; “no binding (tested: antigen coated at 1 µg/mL)” in assay [8]; “no binding (tested: 8.2 to 2000 pg/mL)” with nonactive GIP, GIP(3-42).
